This assay concerns the target HLA-A*02:01 (Homo sapiens, UniProt P04439, D140Y/D185E/D98H/E176V/E277Q/G131W/G231S/I119V/I121R/I166T/I218V/L300P/L318F/N151K/N90K/P208A/P217A/Q86G/Q94H/R138H/R169H/T345S). The experiment in a line: MHC binding assay: UV-ligand exchange with beta2m ELISA (peptide exchange yield). The note with it: binding to HLA-A*02:01. The procedure, abridged:
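Peptide-MHC complexes formed by UV-ligand exchange, a UV-cleavable peptide being replaced by the candidate peptide. Exchange products diluted 100-fold, captured on streptavidin-coated plates for 1h at 37° C, then detected with 2 ug/ml HRP anti-β2m (1h, 37° C) and TMB, absorbance 450 nm; value is exchange yield.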
For orientation: ELISA stands for enzyme-linked immunosorbent assay.
As to “499 (KIFDIDEAEEGV; listed as Homo sapiens) [compound 499]”, the “Peptide exchange (MHC class I binding score, peptide exchange yield)” value (“Peptide exchange” for short) is ““++” (≥20% = ++)”.

Consider “150 (RLWEEGEELEL; listed as Homo sapiens) [compound 150]”, for which the “Peptide exchange” value is listed as ““+++” (≥50 = +++)”.

Regarding “88 (FLLVGDLMAV; listed as Homo sapiens) [compound 88]”, the “Peptide exchange” value is on record as ““+++” (≥50 = +++)”.

Take “286 (YLFPGIPEL; listed as Homo sapiens) [compound 286]”: the “Peptide exchange” value is on record as ““+++” (≥50 = +++)”. Take “202 (ALLDQQGSRWTL; listed as Homo sapiens) [compound 202]”: the “Peptide exchange” value is reported as ““+++” (≥50 = +++)”. For the substance “547 (TLDITPHTV; listed as Homo sapiens) [compound 547]”, the “Peptide exchange” value is ““+++” (≥50 = +++)”. For the substance “551 (KLYESLLPFA; listed as Homo sapiens) [compound 551]”, the “Peptide exchange” value is given as ““+++” (≥50 = +++)”.

In the case of “524 (ALIENLTHQI; listed as Homo sapiens) [compound 524]”, the “Peptide exchange” value was ““++” (≥20% = ++)”.

With “249 (LLDGFLVNV; listed as Homo sapiens) [compound 249]”, the “Peptide exchange” value is on record as ““+++” (≥50 = +++)”.

As to “157 (SLNDEVPEV; listed as Homo sapiens) [compound 157]”, the “Peptide exchange” value is reported as ““++” (≥20% = ++)”. For “251 (ALYTGFSILV; listed as Homo sapiens) [compound 251]”, the “Peptide exchange” value was ““++” (≥20% = ++)”. “328 (ALNDQVFEI; listed as Homo sapiens) [compound 328]”: the “Peptide exchange” value was ““+++” (≥50 = +++)”.

Regarding “28 (QLLDETSAITL; listed as Homo sapiens) [compound 28]”, the “Peptide exchange” value is listed as ““+++” (≥50 = +++)”. For “148 (ALNPEIVSV; listed as Homo sapiens) [compound 148]”, the “Peptide exchange” value was ““++” (≥20% = ++)”.

Consider “117 (ILPDGEDFLAV; listed as Homo sapiens) [compound 117]”, for which the “Peptide exchange” value is ““+++” (≥50 = +++)”. The entry for “115 (AIAGAGILYGV; listed as Homo sapiens) [compound 115]” is ““++” (≥20% = ++)”; for “186 (TLFFQQNAL; listed as Homo sapiens) [compound 186]” it is ““++” (≥20% = ++)”; for “398 (KLLEEDGTIITL; listed as Homo sapiens) [compound 398]” it is ““++” (≥20% = ++)”. The entry for “158 (KLFDVDEDGYI; listed as Homo sapiens) [compound 158]” is ““+++” (≥50 = +++)”. “140 (YMDAPKAAL; listed as Homo sapiens) [compound 140]”: the “Peptide exchange” value is reported as ““++” (≥20% = ++)”. Take “31 (YLAPELFVNV; listed as Homo sapiens) [compound 31]”: the “Peptide exchange” value is listed as ““++” (≥20% = ++)”. For “380 (TLIEDEIATI; listed as Homo sapiens) [compound 380]”, the “Peptide exchange” value is listed as ““++” (≥20% = ++)”. Regarding “477 (ALLPASGQIAL; listed as Homo sapiens) [compound 477]”, the “Peptide exchange” value is listed as ““+++” (≥50 = +++)”. The entry for “303 (AILPQLFMV; listed as Homo sapiens) [compound 303]” is ““++++” (≥75% = ++++)”. For the substance “519 (GLLHLTLLL; listed as Homo sapiens) [compound 519]”, the “Peptide exchange” value is listed as ““+++” (≥50 = +++)”. For the substance “485 (NVPDSFNEV; listed as Homo sapiens) [compound 485]”, the “Peptide exchange” value was ““+++” (≥50 = +++)”. As to “355 (SIQQSIERLLV; listed as Homo sapiens) [compound 355]”, the “Peptide exchange” value is ““++” (≥20% = ++)”.

Consider “441 (ALLENPKMEL; listed as Homo sapiens) [compound 441]”, for which the “Peptide exchange” value is on record as ““+++” (≥50 = +++)”. In the case of “505 (SLAPGDVVRQV; listed as Homo sapiens) [compound 505]”, the “Peptide exchange” value is given as ““++” (≥20% = ++)”. Regarding “462 (KLAKQPETV; listed as Homo sapiens) [compound 462]”, the “Peptide exchange” value is ““+++” (≥50 = +++)”. As for “337 (HLLSELEAAPYL; listed as Homo sapiens) [compound 337]”, the entry is ““++++” (≥75% = ++++)”. The entry for “197 (ALGPEGGRV; listed as Homo sapiens) [compound 197]” is ““++” (≥20% = ++)”; for “3 (SLASKLTTL; listed as Homo sapiens) [compound 3]” it is ““++++” (≥75% = ++++)”. As for “100 (YLLSTNAQL; listed as Homo sapiens) [compound 100]”, the “Peptide exchange” value is ““++++” (≥75% = ++++)”.

On to “612 (YLYNEGLSV; listed as Homo sapiens) [compound 612]”, for which the “Peptide exchange” value is on record as ““+++” (≥50 = +++)”.

Turning to “301 (FLVEDLVDSL; listed as Homo sapiens) [compound 301]”, the “Peptide exchange” value is ““+++” (≥50 = +++)”. For the substance “182 (MLLEAPGIFL; listed as Homo sapiens) [compound 182]”, the “Peptide exchange” value is recorded as ““+++” (≥50 = +++)”. As for “479 (SLFGNSGILENV; listed as Homo sapiens) [compound 479]”, the entry is ““+++” (≥50 = +++)”. Regarding “102 (YLFESEGLVL; listed as Homo sapiens) [compound 102]”, the “Peptide exchange” value is recorded as ““+++” (≥50 = +++)”. With “432 (TLIEESAKV; listed as Homo sapiens) [compound 432]”, the “Peptide exchange” value was ““++” (≥20% = ++)”. “405 (ALYDVFLEV; listed as Homo sapiens) [compound 405]”: the “Peptide exchange” value is recorded as ““++” (≥20% = ++)”. For the substance “430 (HLYSSIEHLTT; listed as Homo sapiens) [compound 430]”, the “Peptide exchange” value is ““+++” (≥50 = +++)”. “252 (LLIGTDVSL; listed as Homo sapiens) [compound 252]”: the “Peptide exchange” value is on record as ““+++” (≥50 = +++)”. “440 (ALADGVTMQV; listed as Homo sapiens) [compound 440]”: the “Peptide exchange” value is ““++” (≥20% = ++)”.

For “529 (LLADELITV; listed as Homo sapiens) [compound 529]”, the “Peptide exchange” value was ““+++” (≥50 = +++)”. As for “494 (ALQPEPIKV; listed as Homo sapiens) [compound 494]”, the “Peptide exchange” value is reported as ““++” (≥20% = ++)”. As to “443 (GLWEIENNPTV; listed as Homo sapiens) [compound 443]”, the “Peptide exchange” value is reported as ““+++” (≥50 = +++)”. Take “370 (SLLQDLVSV; listed as Homo sapiens) [compound 370]”: the “Peptide exchange” value was ““+++” (≥50 = +++)”. On to “76 (ILIDSIYKV; listed as Homo sapiens) [compound 76]”, for which the “Peptide exchange” value is on record as ““+++” (≥50 = +++)”. As for “195 (GLFADLLPRL; listed as Homo sapiens) [compound 195]”, the “Peptide exchange” value is recorded as ““+++” (≥50 = +++)”. The entry for “549 (AMLENASDIKL; listed as Homo sapiens) [compound 549]” is ““+++” (≥50 = +++)”; for “146 (SLATAGDGLIEL; listed as Homo sapiens) [compound 146]” it is ““++” (≥20% = ++)”; for “513 (SLWPSPEQL; listed as Homo sapiens) [compound 513]” it is ““++” (≥20% = ++)”.

In the case of “344 (YLQDQHLLLTV; listed as Homo sapiens) [compound 344]”, the “Peptide exchange” value is given as ““+++” (≥50 = +++)”.

Turning to “339 (GLWEIENNPTVKA; listed as Homo sapiens) [compound 339]”, the “Peptide exchange” value is ““++++” (≥75% = ++++)”.

As to “521 (MLLTKLPTI; listed as Homo sapiens) [compound 521]”, the “Peptide exchange” value is ““+++” (≥50 = +++)”. For “317 (SLAALVVHV; listed as Homo sapiens) [compound 317]”, the “Peptide exchange” value is on record as ““+++” (≥50 = +++)”.

In the case of “334 (TLTKVLVAL; listed as Homo sapiens) [compound 334]”, the “Peptide exchange” value is on record as ““+++” (≥50 = +++)”.

In the case of “610 (LLAPTPYIIGV; listed as Homo sapiens) [compound 610]”, the “Peptide exchange” value is ““+++” (≥50 = +++)”. As for “99 (ALVSKGLATV; listed as Homo sapiens) [compound 99]”, the “Peptide exchange” value is reported as ““++” (≥20% = ++)”. Turning to “263 (LLVSNLDFGV; listed as Homo sapiens) [compound 263]”, the “Peptide exchange” value is ““+++” (≥50 = +++)”.
